Patent US11104735B2, “Inhibition of cytokine-induced SH2 protein in NK cells” (The Walter and Eliza Hall Institute of Medical Research, priority 2015, dated 2021)
Values belong to the molecule of their own block, whether it stands above or below them.

Key:
[1] = molecular target: T1, JAK1 phosphopeptide (JAK1-Y1034) (Homo sapiens, UniProt P23458); test: ITC, CIS constructs binding to JAK1 phosphopeptide; settings: CIS constructs with elongins B and C
T1 construct: purchased Genscript
Procedure: 300 μM phosphopeptides were titrated into a 30 μM solution of the GST-CIS-SH2-BC ternary complex. ITC titration curves are shown. The titration curves all fitted well to a single-site model.
Isothermal calorimetric titrations were performed with a Microcal ITC200 (GE Healthcare). Phosphopeptides were obtained from Genscript. An optimised GST-CIS protein construct was prepared in which the internal PEST region ([…]) was deleted. The resulting ternary GST-CIS-SH2-SB complexes were dialysed against buffer (20 mM Tris pH 8.0, 100 mM NaCl, 2 mM 2-mercaptoethanol). Experiments were performed at 298 K unless stated otherwise. Typically, 12×3.15 μl injections of 300 μM phosphopeptides were titrated into a 30 μM solution of the GST-CIS-SH2-SB ternary complex. The heat of dilution of GST-CIS-SH2-BC was subtracted from the raw data of the binding experiment. Data were analysed using the evaluation software, Microcal Origin version 5.0. The binding curve fitted a single-site binding mode and all KD values were determined from duplicate experiments.

JAK1 = JAK1 (Homo sapiens, UniProt P23458); test: In vitro kinase inhibition assay, JAK1 kinase domain (JH1) with STAT5b substrate peptide; assay type: biochemical
Chain of JAK1 (P23458 875-1153 limits assumed): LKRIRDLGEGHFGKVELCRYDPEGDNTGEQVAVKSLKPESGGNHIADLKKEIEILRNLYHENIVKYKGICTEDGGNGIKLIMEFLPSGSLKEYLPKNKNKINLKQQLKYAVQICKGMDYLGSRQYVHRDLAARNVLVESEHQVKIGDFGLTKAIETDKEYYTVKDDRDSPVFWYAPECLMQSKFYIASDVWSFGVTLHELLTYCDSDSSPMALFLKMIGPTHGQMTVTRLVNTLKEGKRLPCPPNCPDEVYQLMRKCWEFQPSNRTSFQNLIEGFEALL
Procedure: Protein kinase assays, including high throughput kinase assays are known in the art as described in, e.g., in Babon et al. (2013) and Von Ahsen et al. (2005). In one exemplary embodiment 130 μM STAT5b peptide (SEQ ID NO:18 […]) is incubated with 5 nM human JAK1 (see SEQ ID NO:11 for corresponding amino acid sequence) at 25° C. for 30-60 min in 20 mM Tris pH 8.0, 100 mM NaCl, 5 mM 2-mercaptoethanol, 0.2 mg ml^−1 bovine serum albumin, 2 mM MgCl2, 100 μM ATP and 1 μCi γ-[^32P]ATP. […] After incubation, the reaction is spotted onto P81 phosphocellulose paper and quenched in 5% H3PO4. The paper is then washed (4×200 ml, 15 min) with 5% H3PO4 and exposed to a phosphorimager plate. Quantitation is performed using phosphorimager software and IC50 curves are then calculated based on integrated pixel counts.
Kinase inhibition assays were performed essentially as described (Babon et al., 2012). Briefly, 130 μM STAT5b peptide (SEQ ID NO:18 […]) was incubated with 5 nM JAK1 at 25° C. for 30-60 min in 20 mM Tris pH 8.0, 100 mM NaCl, 5 mM 2-mercaptoethanol, 0.2 mg ml^−1 bovine serum albumin, 2 mM MgCl2, 100 μM ATP and 1 mCi γ-[32P]ATP. […] After incubation, the reaction was spotted onto P81 phosphocellulose paper and quenched in 5% H3PO4. The paper was washed (4×200 ml, 15 min) with 5% H3PO4 and exposed to a phosphorimager plate (Fuji). Quantitation was performed using Fuji software and IC50 curves calculated using Graphpad Prism.

Binding affinity (ITC) to JAK1 phosphopeptide [1]: greatest reduction in binding
B1: CIS-ΔN34: human CIS lacking the N-terminal 34 residues, in complex with elongins B and C (protein, UniProt Q9NSE2 35-258, looked up, fragment)
chain: QPLPAGAFLEEVAEGTPAQTESEPKVLDPEEDLLCIAKTFSYLRESGWYWGSITASEARQHLQKMPEGTFLVRDSTHPSYLFTLSVKTTRGPTNVRIEYADSSFRLDSNCLSRPRILAFPDVVSLVQHYVASCTADTRSDSPDPAPTPALPMPKEDAPSDPALPAPPPATAVHLKLVQPFVRRSSARSLQHLCRLVINRLVADVDCLPLPRRMADYLRQYPFQL
modifications: complex with elongins B and C

IC50 (JAK1; JAK1 JH1, in vitro kinase reaction, read-out: IC50, inhibition of JAK1 phosphorylation of a substrate peptide): 120 ± 20 nM
Inhibition of JAK1 relative to inhibition of JAK2, JAK3 or TYK2 (JAK1; JH1 domains of all four JAKs): ≥ 20 fold
Lower efficiency of JAK1 inhibition than SOCS1 (JAK1; compared with SOCS1): 100 fold
B2: CIS-SH2-BC complex: recombinant trimeric complex of human GST-CIS construct (hCIS-SH2; residues 66-258) and Elongins B and C (protein)
chain: MVLCVQGSCPLLAVEQIGRRPLWAQSLELPGPAMQPLPTGAFPEEVTEETPVQAENEPKVLDPEGDLLCIAKTFSYLRESGWYWGSITASEARQHLQKMPEGTFLVRDSTHPSYLFTLSVKTTRGPTNVRIEYADSSFRLDSNCLSRPRILAFPDVVSLVQHYVASCAADTRSDSPDPAPTPALPMSKQDAPSDSVLPIPVATAVHLKLVQPFVRRSSARSLQHLCRLVINRLVADVDCLPLPRRMADYLRQYPFQL
modifications: left off: small tags and cut ends
notes: recombinant trimeric complex of human GST-CIS construct (hCIS-SH2; residues 66-258) and Elongins B and C
